From IntAct's records for PubMed 21151042 come the findings set out here.

The labels stand for the following.
B1: Bcl-2-like protein 11 (Mus musculus), O54918-1 (parent)
chain: MAKQPSDVSSECDREGGQLQPAERPPQLRPGAPTSLQTEPQGNPDGEGDRCPHGSPQGPLAPPASPGPFATRSPLFIFVRRSSLLSRSSSGYFSFDTDRSPAPMSCDKSTQTPSPPCQAFNHYLSAMASIRQSQEEPEDLRPEIRIAQELRRIGDEFNETYTRRVFANDYREAEDHPQMVILQLLRFIFRLVWRRH
B2: Bcl-2-like protein 11 (Mus musculus), O54918-1 (parent)
chain: B1 chain
partner: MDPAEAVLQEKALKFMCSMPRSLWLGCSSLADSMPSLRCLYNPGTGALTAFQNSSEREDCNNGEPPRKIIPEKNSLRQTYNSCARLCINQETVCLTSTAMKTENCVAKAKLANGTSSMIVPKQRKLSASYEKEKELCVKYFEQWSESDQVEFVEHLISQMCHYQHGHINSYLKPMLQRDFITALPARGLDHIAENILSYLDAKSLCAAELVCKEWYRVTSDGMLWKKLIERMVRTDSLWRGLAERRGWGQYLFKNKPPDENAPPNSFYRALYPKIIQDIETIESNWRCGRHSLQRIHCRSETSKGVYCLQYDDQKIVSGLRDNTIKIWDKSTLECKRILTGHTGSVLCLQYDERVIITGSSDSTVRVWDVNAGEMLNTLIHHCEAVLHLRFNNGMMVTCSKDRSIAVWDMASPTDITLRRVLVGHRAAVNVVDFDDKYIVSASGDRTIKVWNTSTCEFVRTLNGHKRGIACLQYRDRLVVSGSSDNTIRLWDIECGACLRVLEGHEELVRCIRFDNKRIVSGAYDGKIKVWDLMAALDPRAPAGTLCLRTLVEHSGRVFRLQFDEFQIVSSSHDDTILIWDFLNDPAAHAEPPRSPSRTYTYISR

One experiment covers variants of B1. The note with it: with kapca_human PRKACA.
In the case of MAKQPSDVSSECDREGGQLQPAERPPQLRPGAPTSLQTEPQGNPDGEGDRCPHGSPQGPLAPPASPGPFATRSPLFIFVRRSALLSRSSSGYFSFDTDRSPAPMSCDKSTQTPSPPCQAFNHYLSAMASIRQSQEEPEDLRPEIRIAQELRRIGDEFNETYTRRVFANDYREAEDHPQMVILQLLRFIFRLVWRRH [S83A], the “effect of a mutation on the interaction” value is given as “disrupting interaction”.

The variants in a further experiment derive from B2. The note with it: with fbw1a_mouse Btrc.
Consider MAKQPSDVSSECDREGGQLQPAERPPQLRPGAPTSLQTEPQGNPDGEGDRCPHGSPQGPLAPPASPGPFATRSPLFIFVRRSALLSRSSSGYFSFDTDRSPAPMSCDKSTQTPSPPCQAFNHYLSAMASIRQSQEEPEDLRPEIRIAQELRRIGDEFNETYTRRVFANDYREAEDHPQMVILQLLRFIFRLVWRRH [S83A], for which the “effect of a mutation on the interaction” value is given as “increasing interaction”.
